# Measurements reported in patent US20130137628A1.
# Target: ATP-binding cassette transporter A1 (ABCA1) on RAW 264.7 murine macrophage cells (murine) (UniProt P41233)
# Assay: cell-based or functional assay
# Chain of UniProt P41233 (P41233 whole entry): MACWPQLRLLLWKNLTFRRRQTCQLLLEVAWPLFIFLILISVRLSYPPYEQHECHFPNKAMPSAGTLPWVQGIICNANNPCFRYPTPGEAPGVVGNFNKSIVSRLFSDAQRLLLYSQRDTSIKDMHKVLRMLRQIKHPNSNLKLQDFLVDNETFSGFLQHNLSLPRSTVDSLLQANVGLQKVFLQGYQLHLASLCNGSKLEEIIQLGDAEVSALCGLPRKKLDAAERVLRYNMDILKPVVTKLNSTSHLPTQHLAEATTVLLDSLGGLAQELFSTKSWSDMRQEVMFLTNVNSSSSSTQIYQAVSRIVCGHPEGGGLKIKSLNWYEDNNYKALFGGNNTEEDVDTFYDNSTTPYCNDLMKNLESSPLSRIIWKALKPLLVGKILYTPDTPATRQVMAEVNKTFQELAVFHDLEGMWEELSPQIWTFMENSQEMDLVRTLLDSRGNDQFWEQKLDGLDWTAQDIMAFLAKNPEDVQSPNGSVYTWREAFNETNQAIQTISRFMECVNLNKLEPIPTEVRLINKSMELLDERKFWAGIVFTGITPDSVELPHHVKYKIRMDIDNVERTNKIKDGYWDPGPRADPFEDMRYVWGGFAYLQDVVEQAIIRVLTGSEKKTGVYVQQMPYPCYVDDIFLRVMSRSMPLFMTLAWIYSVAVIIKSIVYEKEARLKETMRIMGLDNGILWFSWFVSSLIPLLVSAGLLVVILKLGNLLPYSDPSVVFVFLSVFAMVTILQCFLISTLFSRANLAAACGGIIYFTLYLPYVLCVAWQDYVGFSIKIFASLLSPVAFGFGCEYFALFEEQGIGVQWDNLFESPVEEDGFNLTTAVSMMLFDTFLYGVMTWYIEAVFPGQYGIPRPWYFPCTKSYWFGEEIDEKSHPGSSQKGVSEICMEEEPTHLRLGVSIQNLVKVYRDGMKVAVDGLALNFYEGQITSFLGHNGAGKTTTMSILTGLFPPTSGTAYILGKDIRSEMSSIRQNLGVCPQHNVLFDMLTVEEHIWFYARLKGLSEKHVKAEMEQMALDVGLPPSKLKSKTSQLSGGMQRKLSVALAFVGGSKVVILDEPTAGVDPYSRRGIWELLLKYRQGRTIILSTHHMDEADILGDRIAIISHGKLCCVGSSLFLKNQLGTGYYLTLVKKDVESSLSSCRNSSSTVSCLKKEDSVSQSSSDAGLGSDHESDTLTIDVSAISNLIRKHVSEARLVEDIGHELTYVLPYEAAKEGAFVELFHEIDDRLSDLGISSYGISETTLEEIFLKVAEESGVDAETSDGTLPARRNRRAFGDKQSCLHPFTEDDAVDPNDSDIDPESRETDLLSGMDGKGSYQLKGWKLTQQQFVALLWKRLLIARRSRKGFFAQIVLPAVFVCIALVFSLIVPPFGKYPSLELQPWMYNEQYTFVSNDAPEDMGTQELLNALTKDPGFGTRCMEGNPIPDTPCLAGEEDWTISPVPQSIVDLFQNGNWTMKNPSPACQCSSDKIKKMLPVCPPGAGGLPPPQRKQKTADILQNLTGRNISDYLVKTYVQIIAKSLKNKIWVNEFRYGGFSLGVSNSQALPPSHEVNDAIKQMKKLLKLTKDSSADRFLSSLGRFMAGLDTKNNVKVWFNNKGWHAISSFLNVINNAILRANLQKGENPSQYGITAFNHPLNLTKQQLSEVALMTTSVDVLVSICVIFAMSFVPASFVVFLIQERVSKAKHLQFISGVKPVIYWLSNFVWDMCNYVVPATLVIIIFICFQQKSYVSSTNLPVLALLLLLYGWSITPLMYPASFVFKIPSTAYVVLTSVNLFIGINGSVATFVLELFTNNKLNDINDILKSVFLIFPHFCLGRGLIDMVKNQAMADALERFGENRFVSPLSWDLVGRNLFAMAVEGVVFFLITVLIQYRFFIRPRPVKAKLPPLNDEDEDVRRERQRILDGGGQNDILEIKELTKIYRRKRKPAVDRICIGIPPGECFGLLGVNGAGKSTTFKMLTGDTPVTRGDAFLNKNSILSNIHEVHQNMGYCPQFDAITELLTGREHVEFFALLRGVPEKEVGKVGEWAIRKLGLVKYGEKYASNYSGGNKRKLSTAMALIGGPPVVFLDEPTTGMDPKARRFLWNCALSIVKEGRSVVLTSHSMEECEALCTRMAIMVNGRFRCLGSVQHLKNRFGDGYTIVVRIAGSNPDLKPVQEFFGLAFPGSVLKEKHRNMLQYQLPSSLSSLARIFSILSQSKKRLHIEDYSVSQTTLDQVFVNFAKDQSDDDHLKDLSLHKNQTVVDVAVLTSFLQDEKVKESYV
substance,measurement,value
recombinant wild type ApoA1 after MPO/HOCl-mediated oxidative damage (from UniProt P02647 25-267),"ABCA-1-dependent cholesterol efflux ability (reduction upon MPO/HOCl-mediated oxidative damage), RAW 264.7 cells, [3H]-cholesterol",75 to 80%
